In this data set the test system is T1, OC[C@@H](O)[C@@H](O[C@@H]1O[C@H](CO[C@H]2OC[C@@H](O)[C@H](O)[C@H]2O)[C@@H](O[C@@H]2O[C@H](CO[C@H]3OC[C@@H](O)[C@H](O)[C@H]3O)[C@@H](O[C@@H]3O[C@H](CO[C@H]4OC[C@@H](O)[C@H](O)[C@H]4O)[C@@H](O)[C@H](O)[C@H]3O)[C@H](O)[C@H]2O)[C@H](O)[C@H]1O)[C@H](O)[C@@H](O)CO.
T1 construct: called FvXTH6 by Opazo et al. 2017
The experiment in a line: radiochemical XET assay, 3H incorporation into xyloglucan, Michaelis-Menten. Type of data set: biochemical, Fragaria vesca. As to conditions: acceptor substrate, donor 1% (w/v) tamarind xyloglucan, [3H]XXXGol diluted with unlabelled XXXGol (0-357 μM), labelled compound, general XET assay: 100 mM Na succinate pH 5.5, 25 °C.

FvXTH9 (Fragaria vesca subsp. vesca): the Km was found to be 43 µM.

The term Km denotes the substrate concentration at which the rate is half of its maximum.

The values are drawn from article PMC8653885, “Higher expression of the strawberry xyloglucan endotransglucosylase/hydrolase genes FvXTH9 and FvXTH6 accelerates fruit ripening” (The Plant Journal, 2019).
